In article PMC8386928 (Science Advances, 2021):

Target: biotinylated PepT2 (C-terminal Avi tag) (Rattus norvegicus, UniProt Q63424, biotin (on the Avi tag, by BirA))
Test: BLI

Sequence of biotinylated PepT2 (C-terminal Avi tag) (Q63424 whole entry): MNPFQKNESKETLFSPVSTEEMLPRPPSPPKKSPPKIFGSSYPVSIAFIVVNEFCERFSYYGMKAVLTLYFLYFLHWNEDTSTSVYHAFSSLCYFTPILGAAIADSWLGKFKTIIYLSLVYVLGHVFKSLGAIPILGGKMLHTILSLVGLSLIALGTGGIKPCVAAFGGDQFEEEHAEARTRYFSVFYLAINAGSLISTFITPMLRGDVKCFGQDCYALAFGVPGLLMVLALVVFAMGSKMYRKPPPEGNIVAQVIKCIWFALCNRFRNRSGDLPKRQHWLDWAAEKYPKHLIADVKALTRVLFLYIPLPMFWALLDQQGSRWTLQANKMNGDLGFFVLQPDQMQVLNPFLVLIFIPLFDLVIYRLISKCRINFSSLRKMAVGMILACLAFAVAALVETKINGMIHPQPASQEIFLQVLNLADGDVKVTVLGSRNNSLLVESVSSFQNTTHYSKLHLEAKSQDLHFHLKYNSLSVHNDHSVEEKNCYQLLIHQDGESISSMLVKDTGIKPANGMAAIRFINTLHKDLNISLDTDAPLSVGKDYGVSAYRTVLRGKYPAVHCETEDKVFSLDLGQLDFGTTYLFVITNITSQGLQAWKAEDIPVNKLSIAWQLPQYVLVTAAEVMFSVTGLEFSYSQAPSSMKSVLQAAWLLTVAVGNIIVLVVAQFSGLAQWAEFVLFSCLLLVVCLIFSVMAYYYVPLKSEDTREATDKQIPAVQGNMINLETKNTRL

Kd: ~25 nM
B1: nanobody D8 (VHH)
VHH: QVQLVESGGGLVQPGGSLRLLCVASGRPFNDYDMGWFRQAPGKEREFVASISWSGRVTDYSDSMKGRCTVSRDNAKGTMFLQMSNLVPRDTAVYYCAAARRRWTFKATNTEEFYETWGQGTQVTVSS
